# Measured values taken from patent US20170129940A1.
# B1: 10P3 (antibody, V domains shown)
# VH: EVQLVESGGGLVRPGGSLRLSCAASGFTFHNYRMNWVRQAPGKGLEWVANIKQDGSEKSYVDSVRGRFTTSRDNSKNSLYLQINSLRAEDTAVYYCARGEGYTYGVVYSYSAMDVWGQGTTVIVSS
# VL: SYELTQPPSVSVSPGQTARITCSGNVLPNQYASWYQQKPGQAPVLVIYKDTERPSGIPGRFSGSSSGTTVTLTISGVQAEDEADYYCQSADSSGADYVFGTGTKVTVL
# B2: 4I22 (antibody, V domains shown)
# VH: QVQLVESGGGVVQPGRSLRLSCVASGFTFSSYAMHWVRQAPGKGLEWVAVISYDGDNKFYADSVKGRFRISRDTSKNTLYLEMNSLRAADTAIYYCAREELVGLMPPYYNYGLDVWGQGTTVTVSS
# VL: QSVLTQPPSVSAAPGQKVTISCSGSNSNIGNNYVSWYQQLPGRAPKLLIYDNDHRPSGIPDRFSGSKSGTSATLVITGLQTGDEADYYCETWDTSLSAAVVFGGGTKLTVL
# B3: 15D8 (antibody, V domains shown)
# VH: EVQLVQSGAEVKKPGESLKISCQASGYSFTNYWIAWVRQMPGKGLEWMGIIYPGDSDIKYSPSFRGQVTISADKSISNAFLQWRSLRASDTAMYYCARHAIRGDGFDYWGQGTLVTVSS
# VL: SYELTQPPSVSVSPGQTATITCSGDKLGEKYACWYQQKPGQSPVLVMYQDTKRPSGIPERFSGSNSGNTATLTISGTRAMDEADYYCQAWDTNTVIFGGGTKLTVL
# B4: 8I21 (antibody, V domains shown)
# VH: LVELVESGGGVVQPGRSLRLSCAASGFTFSSDGMHWVRQSPGRGLEWVAFISSDGSTPYYADSVKGRFTISRDNSKNTLYLQMNSLRAEDTAMYFCAKDWALFRWLRTFDHWGQGTLVTVSS
# VL: not shown
# B5: 4N10 (antibody, V domains shown)
# VH: QVQLVQSGAEVKKPGSSVRVSCKASGGTFSSYVIIWVRQAPGQGLEWMGGVIPIFDTVNYAQKFQGRVTITADESTSTAYMELSSLKSEDTAVYYCARGILAYCGGDCYNTPYGMDVWGQGTTVTVSS
# VL: DIQMTQSPSILSASVGDRVTITCRASQSISSWLAWYQQKPGKAPKLLIYKASSLEIGVPSRISGSGSGTEFTLTISSLQPDDFATYYCQQYNSSWTFGQGTKVEIK
# B6: 10F7 (antibody, V domains shown)
# VH: EVQLVESGGGLVQPGRSLRLSCTASGFTFGDYAMSWFRQAPGKGLEWVGFIRSKAYGGTTEYAASVKGRFTISRDDSKSIAYLQMNSLKTEDTAVYYCTRASSLLWLLNPQPNFDYWGQGTLVTVSS
# VL: SYVLTQPPSVSVAPGQTARITCGGNNIGSNNVHWYQQKPGQAPVLVVYDDSDRPSGIPERFSGSNSGNTATLTISRVEAGDEADYYCQVWDSSSDHPVFGGGTKLTVL
# B7: 8J16 (antibody, V domains shown)
# VH: QVQLQESGPGLVKPSETLSLTCSVSGGFTSSYYWSWIRQAPGKGLEWIGYVYYGESTDYNPSLKSRATISIDTSKNQFSLKLSSVTAADTAVYYCAREVDKRGFDYWGQGALVTVSS
# VL: EIVLTQSPGTLSLSPGERATLSCRASQSVSGGYLAWYQQEPGQAPRLVIYGASSRATGIPDRFSASGSGTDFTLTITRLEPEDFAVYYCQQYGRTPLTFGGGTKVEIK
# B8: 8C15 (antibody, V domains shown)
# VH: QVQLQESGPGLVKPSETLSLTCTVSGGSIRSYYWSWIRQPPGKGLEWIGHIYYSGNTNYSPSLQSRVTISLDTPKNQFSLRLSSVTAADTAVYYCARHDVIVVRGVFDVWGQGTVVTVSS
# VL: QSALTQPASVSGSPGQSITISCTGTSSDIGTYNLVSWYQQHPGKAPKVLIYDGSKRPSGVSSRFSASKSGNTASLTISGLQAEDETDYYCCSYAGTSDFFVVFGGGTKLTVL
# B9: 7I13 (antibody, V domains shown)
# VH: QVQLVESGGGVVQPGRSLRLSCAASGFTFSNYGMHWVRQGPGKGLEWVAVISYDASSKYYTDSVQGRFTISRDNSKNTLFLQMNSLRGEDTAVYYCAKALRYLDWFLSDPFDYWGQGTLVTVSS
# VL: EIVLTQSPGTLSLSPGERATLSCRASQSVSSDFLAWYQQKPGQAPRLLIYGASSRATGIPDRFSGSGSGTDFTLTISRLEPEDFAVYYCQQYAASPPFGQGTRLEIK
# B10: 7B13 (antibody, V domains shown)
# VH: QVQLVESGGGVVQPGGSLRLSCAASGFSFSNYGMHWVRQAPGKGLEWVALIPSDGNYQYYTDSVKGRFTVSRDNSRNTLYLQMKSLRAEDTARYHCAHLGGGLFDFWGQGTLVTVSS
# VL: QSALNQPRSVSGSPGQSVSISCTGSSSDVGGYEFVSWYQHHPGKAPKLIIYDVDKRPSGVPDRFSGSRSGDTASLTISGLQAEDEADYYCYSSADTWVFGGGTKLTVL
# B11: 8L13 (antibody, V domains shown)
# VH: QVQLLESGGGVVQPGRSLRLSCAASGFTFSNYGMHWVRQAPGKGLEWVAVIWNDGSKKYYAESVKGRFTISRDNSKNTVYLQMNSLRAEDTAVYYCARDEGVQMVFAMPDYGMDVWGQGTTVTVSS
# VL: SYELTQPPSVSVSPGQTASITCSGDKLGDKFACWYQQRPGQSPILVIYQDSKRPSGIPERFSGSNSGNTATLTIRGTQAMDEADYYCQAWDSSTAHYVFGTGTKVTVL
# Molecular target: T1, hCMV gH + gL + UL128 + UL130 + UL131A (co-expressed in HEK293T cells) (human cytomegalovirus), P12824
# Assay: competitor: 2F4-biotin; cell staining
# Conditions: remark: other sources report otherwise
row,Binder,Inhibition of binding (%)
1,B1,0%
2,B2,100%
3,B3,0%
4,B4,0%
5,B5,0%
6,B6,100%
7,B7,0%

# Molecular target: T1, hCMV gH + gL + UL128 + UL130 + UL131A …
# Assay: competitor: 5A2-biotin; cell staining
# Conditions: remark: other sources report otherwise
row,Binder,Inhibition of binding (%)
1,B2,0%
2,B3,0%
3,B4,95%
4,B5,100%
5,B6,0%

# Molecular target: T1, hCMV gH + gL + UL128 + UL130 + UL131A …
# Assay: competitor: 6G4-biotin; cell staining
# Conditions: remark: other sources report otherwise
row,Binder,Inhibition of binding (%)
1,B1,0%
2,B3,0%
3,B4,0%
4,B8,100%
5,B5,0%
6,B9,0%
7,B6,0%
8,B10,100%
9,B7,100%

# Molecular target: T1, hCMV gH + gL + UL128 + UL130 + UL131A …
# Assay: competitor: 9I6-biotin; cell staining
# Conditions: remark: other sources report otherwise
row,Binder,Inhibition of binding (%)
1,B8,100%
2,B9,0%
3,B10,100%
4,B7,70%

# Molecular target: T1, hCMV gH + gL + UL128 + UL130 + UL131A …
# Assay: competitor: 10F7-biotin; cell staining
# Conditions: remark: other sources report otherwise
row,Binder,Inhibition of binding (%)
1,B2,100%
2,B3,0%
3,B5,0%
4,B11,100%
5,B6,100%

# Molecular target: T1, hCMV gH + gL + UL128 + UL130 + UL131A …
# Assay: competitor: 15D8-biotin; cell staining
# Conditions: remark: other sources report otherwise
row,Binder,Inhibition of binding (%)
1,B1,0%
2,B3,100%
3,B4,0%
4,B5,0%
5,B6,0%

# Molecular target: T1, hCMV gH + gL + UL128 + UL130 + UL131A …
# Assay: competitor: 1F11-biotin; cell staining
# Conditions: remark: other sources report otherwise
row,Binder,Inhibition of binding (%)
1,B1,0%
2,B2,100%
3,B3,0%
4,B4,0%
5,B5,0%
6,B11,100%
7,B9,0%
8,B6,100%
9,B7,0%

# Molecular target: T1, hCMV gH + gL + UL128 + UL130 + UL131A …
# Assay: competitor: 4I22-biotin; cell staining
# Conditions: remark: other sources report otherwise
row,Binder,Inhibition of binding (%)
1,B1,0%
2,B2,100%
3,B3,0%
4,B4,0%
5,B8,0%
6,B5,0%
7,B6,100%
8,B7,0%

# Molecular target: T1, hCMV gH + gL + UL128 + UL130 + UL131A …
# Assay: competitor: 4N10-biotin; cell staining
# Conditions: remark: other sources report otherwise
row,Binder,Inhibition of binding (%)
1,B2,0%
2,B3,0%
3,B4,90%
4,B5,100%
5,B6,0%

# Molecular target: T1, hCMV gH + gL + UL128 + UL130 + UL131A …
# Assay: competitor: 2C12-biotin; cell staining
# Conditions: remark: other sources report otherwise
row,Binder,Inhibition of binding (%)
1,B1,0%
2,B2,0%
3,B3,0%
4,B4,0%
5,B8,100%
6,B5,0%
7,B9,0%
8,B6,0%
9,B10,100%
10,B7,100%

# Molecular target: T1, hCMV gH + gL + UL128 + UL130 + UL131A …
# Assay: competitor: 8C15-biotin; cell staining
# Conditions: remark: other sources report otherwise
row,Binder,Inhibition of binding (%)
1,B8,100%
2,B9,0%
3,B10,100%
4,B7,100%

# Molecular target: T1, hCMV gH + gL + UL128 + UL130 + UL131A …
# Assay: competitor: 8I21-biotin; cell staining
# Conditions: remark: other sources report otherwise
row,Binder,Inhibition of binding (%)
1,B1,0%
2,B2,0%
3,B3,0%
4,B4,100%
5,B8,0%
6,B5,90%
7,B9,0%
8,B6,0%
9,B10,0%
10,B7,0%

# Molecular target: T1, hCMV gH + gL + UL128 + UL130 + UL131A …
# Assay: competitor: 8J16-biotin; cell staining
# Conditions: remark: other sources report otherwise
row,Binder,Inhibition of binding (%)
1,B2,0%
2,B8,100%
3,B9,0%
4,B10,100%
5,B7,100%
